The target of series [1] is T1, C3ORF37/HMCES full-length (UniProt Q96FZ2 1-354).
T1 sequence: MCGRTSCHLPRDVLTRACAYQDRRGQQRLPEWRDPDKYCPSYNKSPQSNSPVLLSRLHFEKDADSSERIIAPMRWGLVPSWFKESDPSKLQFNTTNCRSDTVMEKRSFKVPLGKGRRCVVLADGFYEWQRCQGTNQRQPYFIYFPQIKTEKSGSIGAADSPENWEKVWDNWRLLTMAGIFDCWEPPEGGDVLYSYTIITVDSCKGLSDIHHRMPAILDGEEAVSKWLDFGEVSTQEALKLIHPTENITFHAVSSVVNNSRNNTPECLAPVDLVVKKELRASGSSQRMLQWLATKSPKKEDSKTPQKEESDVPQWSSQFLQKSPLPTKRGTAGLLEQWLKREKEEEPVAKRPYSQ
In words: filter binding.

A further series concerns the target T2, ZHX1 (UniProt Q9UKY1 55-830).
T2 sequence: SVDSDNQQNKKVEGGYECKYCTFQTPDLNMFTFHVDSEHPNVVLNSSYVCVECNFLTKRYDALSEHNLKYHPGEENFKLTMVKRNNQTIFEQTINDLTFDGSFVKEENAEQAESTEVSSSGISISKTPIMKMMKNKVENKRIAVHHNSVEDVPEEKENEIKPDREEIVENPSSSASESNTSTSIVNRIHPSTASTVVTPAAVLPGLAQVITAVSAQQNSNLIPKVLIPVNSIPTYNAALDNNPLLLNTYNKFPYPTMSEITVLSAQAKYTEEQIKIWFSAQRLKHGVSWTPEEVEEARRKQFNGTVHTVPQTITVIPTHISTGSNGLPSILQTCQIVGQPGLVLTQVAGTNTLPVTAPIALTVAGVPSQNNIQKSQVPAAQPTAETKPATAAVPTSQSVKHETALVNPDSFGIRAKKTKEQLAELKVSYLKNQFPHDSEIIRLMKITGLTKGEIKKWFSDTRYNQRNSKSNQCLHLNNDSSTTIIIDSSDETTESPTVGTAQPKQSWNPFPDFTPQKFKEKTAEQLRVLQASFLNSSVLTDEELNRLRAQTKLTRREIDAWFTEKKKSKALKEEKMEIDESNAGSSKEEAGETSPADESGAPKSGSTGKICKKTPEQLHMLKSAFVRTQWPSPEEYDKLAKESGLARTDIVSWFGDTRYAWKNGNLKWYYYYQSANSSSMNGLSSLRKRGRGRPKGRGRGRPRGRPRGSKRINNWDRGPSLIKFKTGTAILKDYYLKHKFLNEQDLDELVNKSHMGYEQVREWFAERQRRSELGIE
Description: EMSA. Background: Mobility shift assays separate free from complexed probe on a gel.

In series [2] the target is T3, WDR76 (FLAG-HA, HEK293 purified) (Homo sapiens, UniProt Q9H967 1-626).
T3 sequence: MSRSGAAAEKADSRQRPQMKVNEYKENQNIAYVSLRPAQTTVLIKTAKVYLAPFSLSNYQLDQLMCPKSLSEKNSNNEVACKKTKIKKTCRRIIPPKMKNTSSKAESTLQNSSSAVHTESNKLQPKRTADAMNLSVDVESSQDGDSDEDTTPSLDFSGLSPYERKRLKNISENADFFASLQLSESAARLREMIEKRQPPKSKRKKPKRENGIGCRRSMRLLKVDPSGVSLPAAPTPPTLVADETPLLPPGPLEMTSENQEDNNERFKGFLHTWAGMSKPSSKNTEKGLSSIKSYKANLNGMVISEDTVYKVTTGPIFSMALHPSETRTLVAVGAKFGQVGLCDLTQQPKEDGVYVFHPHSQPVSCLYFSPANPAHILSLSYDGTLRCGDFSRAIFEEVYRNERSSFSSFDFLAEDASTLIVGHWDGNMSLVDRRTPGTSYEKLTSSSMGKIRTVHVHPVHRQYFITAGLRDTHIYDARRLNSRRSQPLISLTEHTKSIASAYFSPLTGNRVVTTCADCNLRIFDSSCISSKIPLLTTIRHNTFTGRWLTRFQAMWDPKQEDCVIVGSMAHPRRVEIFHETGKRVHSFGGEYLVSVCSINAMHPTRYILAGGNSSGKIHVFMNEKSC
Description: EMSA.

Series [3] addresses T4, WDR76 (FLAG-HA, insect cell) (Homo sapiens, UniProt Q9H967 1-626).
T4 sequence: T3 sequence
In words: EMSA.

The next series concerns the target T5, WDR76 NTD (Homo sapiens, UniProt Q9H967 1-151).
T5 sequence: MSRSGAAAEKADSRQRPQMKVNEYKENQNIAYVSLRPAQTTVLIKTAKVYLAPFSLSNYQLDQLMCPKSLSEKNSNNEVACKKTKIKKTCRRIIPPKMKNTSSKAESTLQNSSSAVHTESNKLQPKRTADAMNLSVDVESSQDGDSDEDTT
In words: filter binding.

Series [4] deals with T4, WDR76 (FLAG-HA, insect cell). Description: EMSA. This is another data set of the same source.

Like-named read-outs stand apart in the source and are kept apart here.

B1: C/C duplex (dsDNA)
DNA 1: GCGGCTGCGTGGGTCC
DNA 2: GGACCCACGCAGCCGC
Consider B1, for which the binding result (in series [1]; with ZHX1) was “no binding” throughout.

B2: hmC/hmC duplex (dsDNA)
DNA 1: GCGGCTGCGTGGGTCC
DNA 2: GGACCCACGCAGCCGC
modifications: 5-hydroxymethylcytosine at central CpG C8 of both strands
As for B2, the binding result is “binds” in series [2], “no binding” in the series with ZHX1 and “binds” in series [3].

B3: hmC/C duplex (dsDNA)
DNA 1: GCGGCTGCGTGGGTCC
DNA 2: GGACCCACGCAGCCGC
modifications: 5-hydroxymethylcytosine at central CpG of one strand (strand not stated), C on the other
On to B3, for which, in the series with WDR76 NTD, the binding result is listed as “binds”.

B4: mC/mC duplex (dsDNA)
DNA 1: GCGGCTGCGTGGGTCC
DNA 2: GGACCCACGCAGCCGC
modifications: 5-methylcytosine at central CpG C8 of both strands
On to B4, for which the binding result in the series with ZHX1 is given as “no binding”.

B5: fC/fC duplex (dsDNA)
DNA 1: GCGGCTGCGTGGGTCC
DNA 2: GGACCCACGCAGCCGC
modifications: 5-formylcytosine at central CpG C8 of both strands
Consider B5, for which the binding result (in series [2]; in series [4]; with ZHX1) was “no binding” in each case.
